{"source": "the RNAGym collection of RNA variant scans (doi:10.7554/elife.90254)", "parents": {"B1": {"name": "OR4K15 (parent)", "chain": "GUUAACGGUCAUAGGCCAUGGAAACUAGGAGCACCAUUUCGCUGCCAGUGAAGAAAUGAACAAAGAAAAUCUGGGCCAGGCAGGCAUCAAAAGAAAUAGUCUUGCGCUCAACCAGAAAGUCUGUAAUCAUUUUAAGGGUA"}}}
{"variants_of": "B1", "test": "self-cleavage, relative activity (ratio to wild type); higher = more cleavage; in vitro, sequencing; the parent is a self-cleaving ribozyme"}
{"variant": "G74A A95G", "self-cleavage": 0.35}
{"variant": "G80A A116G", "self-cleavage": 0.03}
{"variant": "A78G U122A", "self-cleavage": 0.13}
{"variant": "C77U A91G", "self-cleavage": 1.91}
{"variant": "G73A G79A", "self-cleavage": 0.17}
{"variant": "G74A U122A", "self-cleavage": 0.18}
{"variant": "A82C C105U", "self-cleavage": 0.02}
{"variant": "U72C G80A", "self-cleavage": 0.38}
{"variant": "G74A U127C", "self-cleavage": 0.02}
{"variant": "C77U U132C", "self-cleavage": 1.95}
{"variant": "G73A A82G", "self-cleavage": 0.22}
{"variant": "A78C U87C", "self-cleavage": 0.27}
{"variant": "G80A A82C", "self-cleavage": 0.14}
{"variant": "A78U U130C", "self-cleavage": 0.2}
{"variant": "C81A U132C", "self-cleavage": 0.29}
{"variant": "C81U U132C", "self-cleavage": 0.5}
{"variant": "C77U C113U", "self-cleavage": 0.27}
{"variant": "G74U C113A", "self-cleavage": 0.04}
{"variant": "G79C U120A", "self-cleavage": 0.04}
{"variant": "U72G A96G", "self-cleavage": 0.07}
{"variant": "A82C A89G", "self-cleavage": 0.16}
{"variant": "G74A C76U", "self-cleavage": 0.11}
{"variant": "G80A A114U", "self-cleavage": 0.05}
{"variant": "A78C U108A", "self-cleavage": 0.01}
{"variant": "U72C U102A", "self-cleavage": 0.07}
{"variant": "G74A A94C", "self-cleavage": 0.06}
{"variant": "G74A A94U", "self-cleavage": 0.19}
{"variant": "A78U U102C", "self-cleavage": 1.21}
{"variant": "G75U U133A", "self-cleavage": 0.15}
{"variant": "G75A U120C", "self-cleavage": 0.02}
{"variant": "C76U C105U", "self-cleavage": 0.03}
{"variant": "G75U A126G", "self-cleavage": 0.08}
{"variant": "A78C U102C", "self-cleavage": 0.42}
{"variant": "C77U U120C", "self-cleavage": 1.21}
{"variant": "G74A U87A", "self-cleavage": 0.22}
{"variant": "A82C A98G", "self-cleavage": 0.09}
{"variant": "U72C A140G", "self-cleavage": 0.34}
{"variant": "A78G U124C", "self-cleavage": 0.14}
{"variant": "G73A A116U", "self-cleavage": 0.03}
{"variant": "A82C A134G", "self-cleavage": 0.17}
{"variant": "U72C C105A", "self-cleavage": 0.03}
{"variant": "G75A G138A", "self-cleavage": 0.13}
{"variant": "U72C G83A", "self-cleavage": 0.08}
{"variant": "U72C C128A", "self-cleavage": 0.13}
{"variant": "G75A U108C", "self-cleavage": 0.03}
{"variant": "A78G U139C", "self-cleavage": 0.24}
{"variant": "A78G U139A", "self-cleavage": 0.23}
{"variant": "A78C A91C", "self-cleavage": 0.19}
{"variant": "A78G A135G", "self-cleavage": 0.19}
{"variant": "A78U A98G", "self-cleavage": 0.06}
{"variant": "G75C U122C", "self-cleavage": 0.12}
{"variant": "U72G A114C", "self-cleavage": 2.51}
{"variant": "A78G U108A", "self-cleavage": 0.03}
{"variant": "A78G U108C", "self-cleavage": 0.01}
{"variant": "G75A C105U", "self-cleavage": 0.01}
{"variant": "G75C A126G", "self-cleavage": 0.12}
{"variant": "G75C A126C", "self-cleavage": 0.09}
{"variant": "A78C U130C", "self-cleavage": 0.21}
{"variant": "U72C G106A", "self-cleavage": 0.02}
{"variant": "A78U U131C", "self-cleavage": 0.17}
{"variant": "A82G A92C", "self-cleavage": 0.78}
{"variant": "A82G A92G", "self-cleavage": 0.67}
{"variant": "G75C A117G", "self-cleavage": 0.15}
{"variant": "A78U G93U", "self-cleavage": 0.53}
{"variant": "G74C A111G", "self-cleavage": 0.02}
{"variant": "C76A A111U", "self-cleavage": 0.03}
{"variant": "A78G U97G", "self-cleavage": 0.27}
{"variant": "A78G U97A", "self-cleavage": 0.27}
{"variant": "U72G", "self-cleavage": 0.12}
{"variant": "G74U A118G", "self-cleavage": 0.1}
{"variant": "G74C A140G", "self-cleavage": 0.23}
{"variant": "G79U A116U", "self-cleavage": 0.03}
{"variant": "U72C G138A", "self-cleavage": 0.49}
{"variant": "G79U A96U", "self-cleavage": 0.13}
{"variant": "G75A U103C", "self-cleavage": 0.06}
{"variant": "A78U A135G", "self-cleavage": 0.3}
{"variant": "C81A G104A", "self-cleavage": 0.67}
{"variant": "A78C A82G", "self-cleavage": 0.11}
{"variant": "C76U U108A", "self-cleavage": 0.01}
{"variant": "A82C A91U", "self-cleavage": 0.3}
{"variant": "A78U U133A", "self-cleavage": 0.72}
{"variant": "A78U A114C", "self-cleavage": 0.05}
{"variant": "A78G C81A", "self-cleavage": 0.1}
{"variant": "A78G C81U", "self-cleavage": 0.14}
{"variant": "A82C A90G", "self-cleavage": 0.15}
{"variant": "C76A A96G", "self-cleavage": 0.19}
{"variant": "A82C", "self-cleavage": 0.07}
{"variant": "A82G", "self-cleavage": 0.4}
{"variant": "C77U U100C", "self-cleavage": 2.13}
{"variant": "A78G A117G", "self-cleavage": 0.22}
{"variant": "U72C U127A", "self-cleavage": 0.19}
{"variant": "U72C U132C", "self-cleavage": 0.3}
{"variant": "C81U U122C", "self-cleavage": 0.29}
{"variant": "C81U A94G", "self-cleavage": 0.41}
{"variant": "G75C U130C", "self-cleavage": 0.08}
{"variant": "G80A A90G", "self-cleavage": 0.18}
{"variant": "A78G A89G", "self-cleavage": 0.18}
{"variant": "U72C U131A", "self-cleavage": 0.1}
{"variant": "U72C U131C", "self-cleavage": 0.16}
{"variant": "A78U A89U", "self-cleavage": 0.35}
{"variant": "A78G U102C", "self-cleavage": 0.31}
{"variant": "C77U A114U", "self-cleavage": 0.14}
{"variant": "G80A A129U", "self-cleavage": 0.02}
{"variant": "G73U A92G", "self-cleavage": 0.16}
{"variant": "A78G A140G", "self-cleavage": 0.32}
{"variant": "A78G A140U", "self-cleavage": 0.36}
{"variant": "G73U A95G", "self-cleavage": 0.17}
{"variant": "A78G A98U", "self-cleavage": 0.39}
{"variant": "A78G A98G", "self-cleavage": 0.08}
{"variant": "A78G A98C", "self-cleavage": 0.27}
{"variant": "G73A A118G", "self-cleavage": 0.14}
{"variant": "A78U A82U", "self-cleavage": 0.15}
{"variant": "A78U A82G", "self-cleavage": 0.08}
{"variant": "G73A G136U", "self-cleavage": 0.22}
{"variant": "C76U", "self-cleavage": 0.05}
{"variant": "C76A", "self-cleavage": 0.1}
{"variant": "C76G", "self-cleavage": 0.16}
{"variant": "A78G U100C", "self-cleavage": 0.31}
{"variant": "A78G U100A", "self-cleavage": 0.04}
{"variant": "C77U A82G", "self-cleavage": 1.26}
{"variant": "A82C U131A", "self-cleavage": 0.14}
{"variant": "A82G A89U", "self-cleavage": 0.51}
{"variant": "A82G A89G", "self-cleavage": 0.45}
{"variant": "A78G G138A", "self-cleavage": 0.2}
{"variant": "G79U A129G", "self-cleavage": 0.04}
{"variant": "G75A C77U", "self-cleavage": 0.11}
{"variant": "C76A A90G", "self-cleavage": 0.14}
{"variant": "G80A U102C", "self-cleavage": 0.42}
{"variant": "C81U A111U", "self-cleavage": 0.05}
{"variant": "C77U A98G", "self-cleavage": 0.88}
{"variant": "G74A U124A", "self-cleavage": 0.1}
{"variant": "G79U U102C", "self-cleavage": 0.06}
{"variant": "A78U U139A", "self-cleavage": 0.5}
{"variant": "A78U U139C", "self-cleavage": 0.28}
{"variant": "A82C G119A", "self-cleavage": 0.17}
{"variant": "G73A A95G", "self-cleavage": 0.28}
{"variant": "G80A A125U", "self-cleavage": 0.24}
{"variant": "G79C A116G", "self-cleavage": 0.03}
{"variant": "G80A A86U", "self-cleavage": 0.24}
{"variant": "G79A U139C", "self-cleavage": 0.11}
{"variant": "G75A U122C", "self-cleavage": 0.08}
{"variant": "G75A U122A", "self-cleavage": 0.17}
{"variant": "U72C U124C", "self-cleavage": 0.17}
{"variant": "A78G U131C", "self-cleavage": 0.07}
{"variant": "A78U G84C", "self-cleavage": 0.11}
{"variant": "A78G U120A", "self-cleavage": 0.22}
{"variant": "U72C U122A", "self-cleavage": 0.09}
{"variant": "G80A A96G", "self-cleavage": 0.18}
{"variant": "G73U A110G", "self-cleavage": 0.03}
{"variant": "C81U U103A", "self-cleavage": 0.1}
{"variant": "A78G A118G", "self-cleavage": 0.29}
{"variant": "G74U G83A", "self-cleavage": 0.16}
{"variant": "G74U A114U", "self-cleavage": 0.04}
{"variant": "A78C U103C", "self-cleavage": 0.14}
{"variant": "U72C A118G", "self-cleavage": 0.1}
{"variant": "A78G U132C", "self-cleavage": 0.12}
{"variant": "A78G G137U", "self-cleavage": 0.25}
{"variant": "G73U U108C", "self-cleavage": 0.02}
{"variant": "U72C G136A", "self-cleavage": 0.7}
{"variant": "A82C A117G", "self-cleavage": 0.15}
{"variant": "A78U U103C", "self-cleavage": 0.06}
{"variant": "C77U U87C", "self-cleavage": 1.31}
{"variant": "G75A A135G", "self-cleavage": 0.04}
{"variant": "G74A U108C", "self-cleavage": 0.01}
{"variant": "C77U", "self-cleavage": 1.54}
{"variant": "C77A", "self-cleavage": 0.76}
{"variant": "A78U A117G", "self-cleavage": 0.36}
